pKd: −log10 of the molar value.
Experiments:
[1] = tested on: relapsed and refractory multiple myeloma (RRMM); test: AB79-1501 study, AB79 monotherapy SC in RRMM: disease response; type: in vivo, human; conditions: at the RP2D, anti-CD38 naïve patients who received at least cycle 1
Text: (§1) The AB79-1501 study is a Phase 1b/2a multicenter, open-label, dose-escalation, single-arm study in patients with relapsed and refractory multiple myeloma (RRMM), who were previously treated with at least a proteasome inhibitor (PI), an immunomodulatory drug (IMiD), an alkylating agent, and a steroid. Patients eligible for study enrollment are refractory or intolerant to at least one PI and at least one IMiD, and have received either ≥3 prior therapies or ≥2 prior therapies, if one of those therapies included a combination of a PI and an IMiD. In the phase 1b dose-escalation part of the study, patients who were previously exposed to an anti-CD38 agent are eligible; however, this criterion is not required. In the phase 2a expansion part of the study, patients were also refractory to at least one anti-CD38 monoclonal therapy at any time during prior treatment. The study was designed to evaluate the safety and tolerability of subcutaneously administered AB79 monotherapy in patients with RRMM, to determine the recommended phase 2 dose (RP2D), and to provide a preliminary assessment of its single-agent activity against RRMM, including in patients who are refractory to daratumumab. Parameters such as safety, tolerability, pharmacokinetics (PK), pharmacodynamics, and disease response were assessed.
As of the data cutoff, nineteen (19) patients were treated in the dose-escalation portion of the ongoing study in patients with RRMM and have completed at least 1 cycle: 4 patients in the first cohort (45 mg); 3 patients in the second cohort (135 mg); 6 patients in the third cohort (300 mg); and 6 patients in the fourth cohort (600 mg). The most common TEAEs (in ≥10% of patients) regardless of causality in the total population as of this date are fatigue and upper respiratory infection (27% each), insomnia (22%), diarrhea and nausea (17% each), headache and anemia (15% each), neutropenia, abdominal distension, back pain, and hypertension (12% each), cough and pneumonia (10% each). […] The RP2D was determined to be 600 mg with AB79 monotherapy. […]

human CD38 = human CD38 (Homo sapiens, UniProt P28907); test: Biacore affinity to human CD38; type: binding
Text: (§2) Other Morphosys antibodies targeting CD38 are known (see, e.g., WO 2006/125640, which discloses four human antibodies: MOR03077, MOR03079, MOR03080, and MOR03100 and two murine antibodies: OKT10 and IB4). […] Moreover, the prior art antibodies have poor ADCC as well as CDC activity.

[2] = AB79-1501 study, AB79 monotherapy SC in RRMM: safety; type: in vivo
Text: as §1, with “Patients” for “The AB79-1501 study is a Phase 1b/2a multicenter, open-label, dose-escalation, single-arm study in patients with relapsed and refractory multiple myeloma (RRMM), who were previously treated with at least a proteasome inhibitor (PI), an immunomodulatory drug (IMiD), an alkylating agent, and a steroid. Patients”
Clinical safety data includes that from patients who received a single dose and from patients who received multiple doses in multiple cycles followed by treatment-free periods. Based on the mechanism of action (MOA) of AB79 and the subcutaneous (SC) route of administration, potential adverse events (AEs) included systemic reaction (e.g., cytokine release syndrome (CRS) and hypersensitivity reaction), hematologic effects (e.g., reduced platelet, lymphocyte, neutrophil, and RBC counts), infections (e.g., bacterial and/or viral infections secondary to immune suppression), and injection site reaction (i.e., erythema or tenderness).

[3] = tested on: peripheral blood NK cells; test: Phase 1 study in healthy subjects (AB79-101): NK cell levels; type: in vivo, human; conditions: all subjects receiving a single 0.06 mg/kg IV dose
Procedure: (§3) In a phase 1 study in healthy subjects (Study AB79-101), AB79 reduced the levels of peripheral blood and natural killer (NK) cells >90% from baseline in all subjects receiving a single 0.06 mg/kg IV dose of AB79, with a maximum observed concentration (Cmax) of 0.1 μg/mL. (U.S. Pat. No. 8,362,211; U.S. International Patent Application Serial Nos. PCT/US2019/013547 and PCT/US2019/024431). […] Potent reduction of plasmablasts was observed across cohorts of patients in the RRMM trial (Study AB79-1501). […] Consequently, AB79 may be more efficient at eliminating cells expressing high levels of CD38, which could manifest as higher activity on tumor cells (e.g., improved and deeper response rates across a population of patients with myeloma).
(§4) AB79 IV reduced the levels of peripheral blood NK cells >90% from baseline levels in all subjects receiving a single 0.06 mg/kg IV dose, with a Cmax of 0.1 μg/mL. […] As a potent and convenient second-generation anti-CD38 mAb, AB79 SC warranted therapeutic development for the treatment of multiple myeloma (MM).

[4] = tested on: plasmablasts in peripheral blood; test: Phase 1 study in healthy subjects (AB79-101): plasmablast levels; type: in vivo, human; conditions: SC
Procedure: as §3, §4

cynomolgus CD38 = cynomolgus CD38 (Macaca fascicularis, UniProt Q5VAN0); test: Binding to cynomolgus CD38
cynomolgus CD38, sequence (Q5VAN0 whole entry): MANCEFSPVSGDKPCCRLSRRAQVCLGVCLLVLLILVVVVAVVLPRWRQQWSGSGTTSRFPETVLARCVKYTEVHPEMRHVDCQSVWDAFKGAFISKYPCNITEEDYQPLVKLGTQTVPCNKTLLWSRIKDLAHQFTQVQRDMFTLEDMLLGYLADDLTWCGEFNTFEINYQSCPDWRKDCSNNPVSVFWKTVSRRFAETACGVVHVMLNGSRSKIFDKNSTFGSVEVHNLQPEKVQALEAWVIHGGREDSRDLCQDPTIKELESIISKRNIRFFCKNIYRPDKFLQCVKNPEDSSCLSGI
Text: as §2

[5] = monotherapy SC, total population, 45-600 mg

Substance: AB79: anti-CD38 monoclonal IgG1 antibody; heavy chain SEQ ID NO:11, light chain SEQ ID NO:12
- clinical benefit rate (minor response or better) [1]: 73%
- disease control rate (stable disease or better) [1]: 91%
- preliminary objective response rate (ORR) [1]: 36%
- pKd (human CD38): 8.27
- infusion-related reactions (IRRs) ([2]; SC, dosed up to 600 mg): have not been observed
- patients with AEs that led to study discontinuation ([2]; both reported as not related to AB79): Two
- injection site reactions ([2]; monotherapy SC): < 0.25%
- share of AEs overall that were Grade 1 or 2 ([2]; monotherapy SC): 55%
- systemic reactions ([2]; monotherapy SC): no systemic reactions
- TEAE regardless of causality: abdominal distension [2, 5]: 12%
- TEAE regardless of causality: anemia [2, 5]: 15%
- TEAE regardless of causality: back pain [2, 5]: 12%
- TEAE regardless of causality: cough [2, 5]: 10%
- TEAE regardless of causality: diarrhea [2, 5]: 17%
- TEAE regardless of causality: fatigue [2, 5]: 27%
- TEAE regardless of causality: headache [2, 5]: 15%
- TEAE regardless of causality: hypertension [2, 5]: 12%
- TEAE regardless of causality: insomnia [2, 5]: 22%
- TEAE regardless of causality: nausea [2, 5]: 17%
- TEAE regardless of causality: neutropenia [2, 5]: 12%
- TEAE regardless of causality: pneumonia [2, 5]: 10%
- TEAE regardless of causality: upper respiratory infection [2, 5]: 27%
- dose-limiting toxicities (DLTs) ([2]; monotherapy cohorts): no DLTs
- maximum tolerated dose (MTD) ([2]; monotherapy cohorts): has not been identified
- drug-related SAEs (Diverticulitis) ([2]; patient with past medical history of diverticulitis): One
- reduction of levels of peripheral blood NK cells from baseline [3]: > 90%
- reduction of levels of circulating plasmablasts in peripheral blood [4]: dose-dependent manner
- binding to cynomolgus CD38 (cynomolgus CD38): binds
